# Assay results: US20230167482A1, “FUNCTIONAL CYTOCHROME P450 IN VITRO ASSAY” (PharmGenetix GmbH, priority 2019, published 2023)
# Residue numbers refer to the chain shown, from its start.
# B1: *10: human CYP2D6 variant allele *10 (PV00435), SEQ ID NO: 6 (protein, UniProt P10635 1-497, looked up, variant P34S S486T)
# Cytochrome P450 2D6: MGLEALVPLAVIVAIFLLLVDLMHRRQRWAARYSPGPLPLPGLGNLLHVDFQNTPYCFDQLRRRFGDVFSLQLAWTPVVVLNGLAAVREALVTHGEDTADRPPVPITQILGFGPRSQGVFLARYGPAWREQRRFSVSTLRNLGLGKKSLEQWVTEEAACLCAAFANHSGRPFRPNGLLDKAVSNVIASLTCGRRFEYDDPRFLRLLDLAQEGLKEESGFLREVLNAVPVLLHIPALAGKVLRFQKAFLTQLDELLTEHRMTWDPAQPPRDLTEAFLAEMEKAKGNPESSFNDENLRIVVADLFSAGMVTTSTTLAWGLLLMILHPDVQRRVQQEIDDVIGQVRRPEMGDQAHMPYTTAVIHEVQRFGDIVPLGVTHMTSRDIEVQGFRIPKGTTLITNLSSVLKDEAVWEKPFRFHPEHFLDAQGHFVKPEAFLPFSAGRRACLGEPLARMELFLFFTSLLQHFSFSVPTGQPRPSHHGVFAFLVTPSPYELCAVPR
# B2: *14: human CYP2D6 variant allele *14 (PV00439), SEQ ID NO: 7 (protein, UniProt P10635 1-497, looked up, variant P34S G169R R296C S486T)
# Cytochrome P450 2D6: B1 Cytochrome P450 2D6 with G169R, R296C
# B3: *29: human CYP2D6 variant allele *29 (PV00453), SEQ ID NO: 8 (protein, UniProt P10635 1-497, looked up, variant V136I R296C V338M S486T)
# Cytochrome P450 2D6: B1 Cytochrome P450 2D6 with S34P, V136I, R296C, V338M
# B4: *9: human CYP2D6 variant allele *9 (PV00434), SEQ ID NO: 5 (protein, UniProt P10635 1-497, looked up, variant K281*)
# Cytochrome P450 2D6: MGLEALVPLAVIVAIFLLLVDLMHRRQRWAARYPPGPLPLPGLGNLLHVDFQNTPYCFDQLRRRFGDVFSLQLAWTPVVVLNGLAAVREALVTHGEDTADRPPVPITQILGFGPRSQGVFLARYGPAWREQRRFSVSTLRNLGLGKKSLEQWVTEEAACLCAAFANHSGRPFRPNGLLDKAVSNVIASLTCGRRFEYDDPRFLRLLDLAQEGLKEESGFLREVLNAVPVLLHIPALAGKVLRFQKAFLTQLDELLTEHRMTWDPAQPPRDLTEAFLAEMEAKGNPESSFNDENLRIVVADLFSAGMVTTSTTLAWGLLLMILHPDVQRRVQQEIDDVIGQVRRPEMGDQAHMPYTTAVIHEVQRFGDIVPLGVTHMTSRDIEVQGFRIPKGTTLITNLSSVLKDEAVWEKPFRFHPEHFLDAQGHFVKPEAFLPFSAGRRACLGEPLARMELFLFFTSLLQHFSFSVPTGQPRPSHHGVFAFLVSPSPYELCAVPR
# Test system: CYP2D6
# Test: Functional CYP2D6 in vitro assay: HEK-Blue cells transiently transfected with a CYP2D6 variant, P450-Glo luminescence with Luciferin-ME EGE, normalized to secreted NanoLuc
# Assay type: cell-based, human
# Settings: one-way ANOVA followed by Dunnett post hoc test, categories: loss, decrease, normal, increase of function
# Method: Therefore the CYP2D6 coding sequence (CDS) of interest is cloned into pcDNA3.1-HISC vector, and variants of interest are produced via site-directed mutagenesis (FIG. 1; step 1).
# pcDNA3.1-HISC (A) and pNL1.3CMV[secNluc/CMV] (B) vectors are co-transfected in HEK-Blue™ cells (FIG. 1; step 2). 48 hours after transfection, secreted NanoLuc is detected and measured by luminescence using a multi-plate reader (FIG. 1; step 3). Following NanoLuc detection, old media is replaced with Luciferin ME-EGE containing media (FIG. 1; step 4). After 3 hours incubation at 37° C., cells are lysed and luciferin production (proportional to CYP2D6 activity) is measured using a multi-plate reader (FIG. 1; step 5).
# CYP2D6 cDNA was obtained from total liver RNA (Ambion®, Life Technology, Wien, Austria), following Reverse-Transcription-PCR (RT-PCR) using the Quantitect® Reverse Transcription kit (Qiagen, Hilden, Germany) following manufacturer instructions. The CYP2D6 coding sequence (CDS) was then amplified using the following oligonucleotide primers: 5′-[…]-3′ (forward primer) and 5′-[…]-3′ (reverse primer). The CYP2D6 CDS was then cloned into the pcDNA3.1-HISC eukaryotic protein expression vector under the control of the CMV immediate enhancer and promoter, using the NheI and KpnI restriction digestion enzymes (Thermo Scientific, Waltham, Mass., USA). […] All the other tested CYP2D6 variants were similarly created. After production, vectors and cloned inserts were verified with Sanger sequencing against the wild-type reference sequence (SEQ ID No: 2).
# Cell culture and transfection Human Embryonic Kidney (HEK)-Blue (HEK-Blue™ IL-4/IL-13 cells, Invivogen, Toulouse, France) cells, an engineered cell line derived from HEK-293 cells, were cultured in a humidified incubator at 37° C. with 5% CO2 with Dulbecco's Modified Eagles Medium (DMEM) supplemented with 4.5 g/L glucose, 10% (v/v) Fetal Bovine Serum (FBS), 1.5% NaHCO3, 50 U/mL penicillin, 50 μg/mL streptomycin, 10 μg/mL Blasticidin and 100 μg/mL Zeocin™ (Invivogen, Toulouse, France). Media was replaced three times weekly. […]
# Forty-eight hours following transfection, a 20 μL aliquot of the supernatant was transferred from each well into a new white 96-well Nunclon™ A Surface plate for the detection of the secreted NanoLuc® levels using the Nano-Glo® Luciferase assay (Promega, Mannheim, Germany). […] Following three minutes incubation at room temperature (RT), luminescence was measured using the Spark® 10M multimode multiplate reader (Tecan, Grodig, Austria), keeping an optical density filter of 1 (OD1) and 1 second of integration time. Luminescence levels directly correspond to the amount of secreted NanoLuc®, which is used for normalization of transfection efficiency. […]
row,Molecule,function category of the variant versus *1 and *3 controls
1,B1,decrease of function
2,B2,decrease of function
3,B3,decrease of function
4,B4,decrease of function
